Reference: the supplement of paper PMC9170038

Test system: K4 kissing-loop RNA reporter
Test: apparent KD of K4 kissing-loop reporter; higher = weaker reporter binding
Details: Eterna round: R107
Method: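 RNA-MaP round R107: designed RNA switches with theophylline, tryptophan, arginine or FMN aptamers are transcribed on-chip within common flanks. They are titrated with a labelled K4 kissing-loop RNA reporter in RNA-MaP buffer (100 mM Tris pH 7.5, 80 mM KCl, 4 mM MgCl2), without ligand or with the indicated ligand. Median apparent KD per design.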

[1] = input ligand: theophylline 20 uM
[2] = input ligand: tryptophan 2.4 mM
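Note: bound reporter read as fluorescence of individual clusters on recovered sequencing chips by microscopy, with normalized cluster intensities fitted with a binding model.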

Sequence	apparent KD of K4 kissing-loop reporter (input ligand: FMN 200 uM) [nM]	apparent KD of K4 kissing-loop reporter (input ligand: arginine 13.2 mM) [nM]	apparent KD of K4 kissing-loop reporter (input ligand: none) [nM]	apparent KD of K4 kissing-loop reporter [1] [nM]	apparent KD of K4 kissing-loop reporter [2] [nM]
UUUUAAUGCAGUGAUGUUGCUAAUAAAACAGAGGAUAUGCAUGGAAGCAGAAGGCUGAAAUAUUAUACUUUAAUAAAUUAUAUUU [JR_SSFMNA_Sub010]	71.2	116	78.8	119	66.6
ACGUAGUUCUAGGAUACCAGCCAAGGAGGGUAGGACAAAAGUCCUGUAGCCAGUGAUGUUGGCCCUUGGCAGCCUAGAACUACGA [Omei KL Theo B Exc B v3]	162	183	138	139	151
AAGCAGUCGCUCGAAGCCAUCGAAGAUGGGCGAGGACCGGUACGGCCGCCACUCGGAGUGAUGUUCCGAGGACUGCAAAAUAAAA [MatMod 5 - Jieux - Exclusion - Tryptophan A]	418	246	321	263	409
CGGAGUGAUGUUCCUUUUAUUAAUUAUUUACGAGGACCGGUACGGCCGCCACUCGAUUUAGCUUUUAUUUAAUGCUUGGAUGUUU [JR_SSTryptoA_Sub004]	130	212	140	208	66.3
GGGAGGAAAAUUUUCCUCAAAAGUUGGCUACAGGAUAUCGUGGGAAUGAGAAGGGUAACCGAGACGCCCAGUGAUGUUGGGUGCC [Antegete]	415	247	318	251	245
AGGUUUUGAUUAGGAUAUGCACUGACGACGAGAAUAUAGUGAUGUUAUAUAAUACGAAUUAGUAGAGUAGAAGGGAUUGAGGUUU [SSFMNB.X]	422	307	348	390	286
UGCUUUAUCAGAAGGAGCGGGUUGUUCAUAAUAAUAAUCAGUGAUGUUGAUAUAUGAUGAUUCCAGGUAGGUCGCUGAUAUAGCU [KL-XARG-B2]	283	214	273	256	238
AAUUAAGUGACGGCCGCCACUAGGGUGAUUUUUUUGUUUGAGUGAUGUUUUGAUGUUUGAUUUUGUAGGACCGGGUUAGGUGAUG [juhmullin]	332	295	426	404	252
AGUUCAGAGUGACUCGAUAAGAGUCACAAACGAGGACCGGUACGGCCGCCACUCGAAAUAACGAGAGUGAUGUUCUCGCUGGGCA [FiskerMod 2 - Jieux - Same State Tryptophan A]	726	674	862	824	244
UUUUAAAUAUCUGAUACCAGAGAAAAUAUAUGUAGUGAUGUUAUAUACAAAAUAAAUAAGCUCCCUUGGCAGCAGUAUUAAUUUU [AstrosExyTheB#1]	655	622	808	688	610
UAGUCCGGGUGAUGGUCAUCACGUGGCGGGCGAGGACCGGUACGGCCGCCACUCGACUUUGCAGUGAUGUUGCAAACCGGACAAU [Exclusion - Tryptophan A (Freestyle 22)]	221	192	201	225	259
GCAGUGAUGUUGCGGAUGUACAGUGGAGUGCGAGGACCGGUACGGCCGCCACUCGUACAGAACAAGCUAAUAUAUCGAUAGGUGA [X]	203	242	263	282	157
GGUAGCAUCGCGGCCGCCACUAAUCGCUAAGGCUCAGGACCCUAAUAGCGAGUGAUGUUCGCCCUUAGGACCGGGCGAUGCUACC	114	93.3	101	87.5	119
AGUGAUGUAUGGCGGUGUGUCGCUUAAAAUCAGGAUAUAUAAACAAAUAGAAGGGAUGGCGGAGUGAUGUUCCGCCGGCCGCCAU [FMN A Exl V2]	127	118	134	136	128
GAUACGAAGCAGUGAUGUUGCUUAUGAGAAGGAGCGCACGAAAGUGCAGGUAGGUCGCUCAGCCAUGUGGACGAAAACGUCCACA [whbob_SS_Arginine_A_sa111]	90.2	109	97.4	126	78.1
UUACAGGAACAAGGAUAUGGCGUUGUAGUGAUGUUACAGCGAAGAGCUCCACGCGAUCGGACAAAACCAGAAGGUGUAUGGAAUC [theeternabot_exclusion_KL_FMN_B_42]	155	108	127	116	112
AGACUACCACACUGUCAAUAGACAGUGGACUAGGAUAUGCUGAUAAGCAGAAGGAGUGAUGUUCCCAGGUAGUCAAUAAAAUAAU [FmnAX 13 G28+C66]	215	205	225	322	246
UCGGAGGGAGCGGCCGCCACUGUAUUACCUCGACGAACGCCGGUUUUCAUGAAGUGAUGUUUCGCCAGGACCGGGCUAAUCUGAG [theeternabot_exclusion_KL_Trp_B_46]	244	202	235	217	206
ACGCGCGCGAGUGAUGUUCGGAGCGGCUGGCAGGAUAUGUAGCAAUGCAGAAGGGUCGUGGCGGUGGGCGCGCAAGCGGCUGCCG [#2 Exclusion - FMN A Attempt #12 (HarryS)]	187	318	396	399	371
CGCAGUGAUGUUGCGAGUAACUACAGGGAAGGAGCGCGGUAGUCCGCAGGUAGGUCGCCCACGCAGUGAUGUUGCGUCAUAGGGU [Exclusion Arg A GF7]	110	109	104	118	97.3
UGACUGGACUGAAGGAGCGCUAAAACUCCUAGUGAUGUUGGGAAAACGAGACAAAGUCUCGAGCAGGUAGGUCGCAGUCUAGUCU [ArgBS 22 #SwitchBubble #StaticStem]	302	196	253	278	258
AGAGUUAUGCGAGGAUAUGCAGUUAGUACUCAAAGAGUACUAACGCAGAGUGAUGUUCUGUGAAAUGCAGAAGGUGCAUAACUCA [Omei KL FMN B SS B v5]	157	316	330	316	289
